Assay [1] has as its target T1, hCD71-Nluc fusion protein (human, UniProt P02786 1-760).
T1 construct: whole, on cells; Used as crude membrane fractions of HEK293 cells stably expressing hCD71-Nluc; also called human transferrin receptor, CD71, fused to NanoLuc; not shown: NanoLuc (ProMega) luciferase joined through its N-terminal Val
Description: nanoBRET competition, tracer BCY17871-1598988 60 nM, HEK293 hCD71-Nluc membranes.

The target in assay [2] is T1, hCD71-Nluc fusion protein. Described as above. The source holds these as a separate data set.

These results are taken from patent US20240382605A1 (IONIS PHARMACEUTICALS, published 2024).

Read-outs that look alike come from different tables or passages of the source.

T1 sequence (P02786 other isoform, or with tags, fused parts or gaps): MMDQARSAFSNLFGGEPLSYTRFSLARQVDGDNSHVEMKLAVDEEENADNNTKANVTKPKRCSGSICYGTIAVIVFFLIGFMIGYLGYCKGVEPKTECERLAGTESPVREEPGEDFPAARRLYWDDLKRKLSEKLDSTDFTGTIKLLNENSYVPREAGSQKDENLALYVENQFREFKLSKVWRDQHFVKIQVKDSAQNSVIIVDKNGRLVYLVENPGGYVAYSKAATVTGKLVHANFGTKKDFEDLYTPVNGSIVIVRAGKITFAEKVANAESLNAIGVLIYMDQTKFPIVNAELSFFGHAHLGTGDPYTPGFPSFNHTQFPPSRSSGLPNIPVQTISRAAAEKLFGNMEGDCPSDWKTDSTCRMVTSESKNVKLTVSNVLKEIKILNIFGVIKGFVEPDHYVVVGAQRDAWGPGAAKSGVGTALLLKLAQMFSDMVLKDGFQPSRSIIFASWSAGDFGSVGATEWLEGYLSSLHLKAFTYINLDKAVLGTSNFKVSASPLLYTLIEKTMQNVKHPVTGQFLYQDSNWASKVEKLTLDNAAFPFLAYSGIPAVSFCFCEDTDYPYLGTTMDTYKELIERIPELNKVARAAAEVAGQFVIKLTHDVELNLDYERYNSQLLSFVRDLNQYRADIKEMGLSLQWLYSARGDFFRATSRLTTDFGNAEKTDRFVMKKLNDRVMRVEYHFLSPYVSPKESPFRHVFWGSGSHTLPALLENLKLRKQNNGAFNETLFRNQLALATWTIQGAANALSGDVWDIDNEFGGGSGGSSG

B1: 1453015:1550983-BCY17873 (peptide)
peptide: CSPDAHLGCISYCEPWX
modifications: not fully specified; as printed CSPDAHLGCISYCEPW[K(N3)]: N-terminal acetyl; C-terminal amide; three Cys bound to TATB scaffold; [K(N3)] 6-azido lysine at 17 joined via BCN linker to sense strand 1550983 of the RNAi duplex 1453015:1550983
notes: nucleic acids; also called RNAi compound 1453015:1550983 conjugated to BCY17873
On to B1, for which the Ki – broadly, a measure of affinity in units of concentration, obtained from inhibition or displacement – in assay [1] came out at 9 nM; in assay [2] it was 38 nM.
